One block for each binder: values may come before it.
Legend:
[1] = molecular target: T1, human serum albumin (human, UniProt P02768 25-609); assay: SPR (MASS-1), trispecific immobilised, antigens injected sequentially
T1 construct: also called HSA
Description: (§1) All possible sequences of antigen injection were tested resulting in six possible sequences.
(§2) To evaluate concomitant binding of each antigen to trispecific molecules, the binding level relative to the theoretical Rmax was calculated for each injection using the respective ligand and analyte molecular masses and the immobilization level of the trispecific molecules. The average of the maximum binding relative to theoretical Rmax for each antigen was obtained by averaging individual maximum binding relative to theoretical Rmax obtained for the two injections where the respective antigen was injected as first analyte (in the absence of other bound antigens). Next, the binding relative to the theoretical Rmax of each analyte injection was compared to its average maximum binding to calculate the fraction binding obtained in the presence of other bound antigens. […] The binding levels relative to the theoretical Rmax and the average of maximum binding (binding levels in the absence of other antigens) of each antigen were calculated.

[2] = molecular target: T2, human TNFα (human, UniProt P01375 77-233); assay: as above
T2 construct: Biotinylated in the Biacore assay
Description: as §1, §2

[3] = molecular target: T3, human IL-17A (human, UniProt Q16552 24-155); assay: as above
T3 construct: Recombinant human IL-17A (Peprotech Cat. No. 200-17), disulfide-linked homodimer from E. coli; Biotinylated or RPE-labelled in some assays; also called hIL-17A; IL-17A-RPE (labelled)
Description: as §1, §2

[4] = molecular target: T1, human serum albumin; assay: SPR (MASS-1), HSA immobilised, trispecific as analyte, pH 5.5
Description: (§3) The binding to human serum albumin (HSA) and cynomolgus serum albumin (CSA) was assessed for purified trispecific molecules by running SPR spectroscopy on a MASS-1 device (Sierra Sensors). HSA was directly immobilized on a high capacity amine sensor chip (Sierra Sensors) and trispecific molecules were injected as analyte using a dose response multicycle kinetic assay with concentrations of the analyte ranging from 0.35 to 90 nM diluted either in running buffer at pH5.5 or pH7.5. Obtained sensorgrams were fitted using the 1:1 binding model. Affinity to CSA was assessed in a similar approach using a CSA immobilized sensor chip.

[5] = molecular target: T2, human TNFα; assay: cell-based or functional assay
[6] = molecular target: T2, human TNFα; assay: SPR (Biacore T200), biotinylated antigen captured (Biotin-CAPture), trispecific as analyte;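 also: multicycle dose-response kinetics, analyte at 0.35–90 nM in running buffer, CAP chip regenerated with fresh antigen each cycle, sensorgrams fitted to a 1:1 binding model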
Description: (§4) In this experiment, the biotinylated antigens were captured using the Biotin-CAPture kit from Biacore. After each analyte injection cycle the CAP sensor chip was regenerated and new antigen was captured. Trispecific molecules were injected as analyte using a dose response multicycle kinetic assay with concentrations of the analyte ranging from 0.35 to 90 nM diluted in running buffer. Obtained sensorgrams were fitted using the 1:1 binding model.

[7] = molecular target: T3, human IL-17A; assay: as above
Description: as §4

[8] = molecular target: T2, human TNFα; assay: cell-based or functional assay; remark: listed apart in the source
[9] = molecular target: T3, human IL-17A; assay: competitive ELISA: IL-17RA coated, biotinylated IL-17A preincubated with trispecific molecule
Description: (§5) Finally, Tetramethylbenzidine solution was added to develop the plate for 5 to 10 minutes and the reaction was stopped with 1 M HCl. The plate was read at 450 nm and 570 nm (reference wavelength).

[10] = molecular target: T1, human serum albumin; assay: SPR (MASS-1), trispecific immobilised, HSA injected as last analyte
Description: as §1, §2

[11] = molecular target: T1, human serum albumin; assay: SPR (MASS-1), HSA immobilised, trispecific as analyte, pH 7.4
Description: as §3

[12] = molecular target: T3, human IL-17A; assay: competitive ELISA: biotinylated human IL-17A preincubated with the trispecific molecule, then binding to coated IL-17RA detected (blocked ligand: IL-17RA) [right panel]
[13] = molecular target: T3, human IL-17A; assay: competitive ELISA, blocking of IL-17A/IL-17RA interaction (summary table)
Description: as §5

[14] = molecular target: T2, human TNFα; assay: cell-based or functional assay; remark: listed apart in the source
[15] = molecular target: T3, human IL-17A; assay: cell-based or functional assay
[16] = molecular target: T2, human TNFα; assay: SPR (summary table), affinity to human TNF
Description: as §4

[17] = molecular target: T3, human IL-17A; assay: SPR (summary table), affinity to human IL-17, capture setup
Description: as §4

[18] = molecular target: T1, human serum albumin; assay: SPR (summary table), affinity to HSA at pH 5.5
Description: as §3

[19] = molecular target: T4, cynomolgus monkey IL-17A (Macaca fascicularis (cynomolgus monkey)); assay: SPR (Biacore T200)
T4 construct: also called cyno IL-17A; cyno IL17A
Description: (§6) After each analyte injection cycle the CAP sensor chip was regenerated and new antigen was captured. The scFvs were injected as analyte using a dose response multi-cycle kinetic assay with concentrations of the analyte ranging from 0.35 to 90 nM diluted in running buffer. Obtained sensorgrams were fitted using the 1:1 binding model. In addition, the scFvs were analyzed in an alternative SPR assay setup (“direct setup”).

[20] = molecular target: T5, human IL-17C (human, UniProt Q9P0M4 19-197); assay: competition ELISA: scFv A1 coated, binding of biotinylated IL-17A detected, unlabeled IL-17C titrated as competitor [I) B]
T5 sequence: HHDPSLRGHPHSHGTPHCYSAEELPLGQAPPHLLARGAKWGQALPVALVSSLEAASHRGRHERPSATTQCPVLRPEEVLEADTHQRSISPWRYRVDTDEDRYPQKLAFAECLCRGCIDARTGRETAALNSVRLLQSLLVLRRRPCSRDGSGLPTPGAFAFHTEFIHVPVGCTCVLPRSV
Excerpt: (§7) For this purpose, the scFvs were coated on a 96-well ELISA plate.

[21] = molecular target: T3, human IL-17A; assay: SPR (Biacore T200), capture setup: biotinylated IL-17A captured, scFv as analyte
Description: as §6

[22] = molecular target: T3, human IL-17A; assay: competitive ELISA: IL-17RA coated, biotinylated IL-17A preincubated with scFv
Description: Finally, Tetramethylbenzidin solution (KPL, Cat. No. 53-00-00) was added to develop the plate for 5 to 10 minutes and the reaction was stopped with 1 M HCl. The plate was read using a microtiter plate reader (Infinity reader M200 Pro, Tecan) at a wavelength of 450 nm and 570 nm (reference wavelength).

[23] = molecular target: T6, human IL-17D (human, UniProt Q8TAD2 16-202, limits assumed); assay: competition ELISA: scFv A1 coated, binding of biotinylated IL-17A detected, unlabeled IL-17D titrated as competitor [I) A]
T6 sequence: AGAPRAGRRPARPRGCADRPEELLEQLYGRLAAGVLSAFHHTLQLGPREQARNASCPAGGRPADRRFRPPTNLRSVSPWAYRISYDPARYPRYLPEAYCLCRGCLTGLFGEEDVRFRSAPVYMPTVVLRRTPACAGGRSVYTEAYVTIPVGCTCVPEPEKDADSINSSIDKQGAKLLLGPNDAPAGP
Excerpt: as §7

[24] = molecular target: T7, human IL-17E (human, UniProt Q9H293 33-177); assay: competition ELISA: scFv A1 coated, binding of biotinylated IL-17A detected, unlabeled IL-17E titrated as competitor [I) A]
T7 construct: also called IL-25
T7 sequence: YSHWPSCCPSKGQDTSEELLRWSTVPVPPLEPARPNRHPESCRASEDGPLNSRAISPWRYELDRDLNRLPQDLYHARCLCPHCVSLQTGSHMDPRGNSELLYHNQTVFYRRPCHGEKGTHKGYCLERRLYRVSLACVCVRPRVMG
Excerpt: as §7

[25] = molecular target: T8, human IL-17B (human, UniProt Q9UHF5 21-180); assay: competition ELISA: scFv A1 coated, binding of biotinylated IL-17A detected, unlabeled IL-17B titrated as competitor [I) B]
T8 sequence: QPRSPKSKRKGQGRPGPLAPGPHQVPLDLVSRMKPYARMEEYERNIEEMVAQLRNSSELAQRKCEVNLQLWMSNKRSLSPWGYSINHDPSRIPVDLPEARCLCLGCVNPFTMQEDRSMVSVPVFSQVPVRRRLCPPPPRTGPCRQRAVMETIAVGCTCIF
Excerpt: as §7

[26] = molecular target: T9, human IL-17F (human, UniProt Q96PD4 31-163); assay: competition ELISA: scFv A1 coated, binding of biotinylated IL-17A detected, unlabeled IL-17F titrated as competitor [I) A]
T9 construct: Peprotech Cat. No. 200-25 in the direct ELISA
T9 sequence: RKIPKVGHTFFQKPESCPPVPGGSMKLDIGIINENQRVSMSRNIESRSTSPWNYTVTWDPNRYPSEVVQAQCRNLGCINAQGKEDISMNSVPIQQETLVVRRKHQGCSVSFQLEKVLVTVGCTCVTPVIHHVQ
Excerpt: as §7

[27] = molecular target: T3, human IL-17A; assay: cell-based or functional assay; remark: listed apart in the source
[28] = molecular target: T4, cynomolgus monkey IL-17A; assay: SPR (Biacore T200), cynomolgus IL-17A, scFv as analyte
Description: as §6

[29] = molecular target: T3, human IL-17A; assay: SPR (Biacore T200), direct setup: IL-17A amine-coupled on CM5, scFv as analyte
Description: as §6

- antigen binding relative to average maximum binding [1]: ≥ 70%
- antigen binding relative to average maximum binding [2]: ≥ 70%
- antigen binding relative to average maximum binding [3]: ≥ 70%
- Kd [4]: 0.799 nM
- koff [4]: 0.000375 s⁻¹
- kon [4]: 469000 M⁻¹ s⁻¹
- rel. IC50 in L929 assay (IC50, A13/IC50, test sample, nM) [5]: 0.4
- Kd [6]: 0.185 nM
- koff [6]: 4.06e-05 s⁻¹
- kon [6]: 219000 M⁻¹ s⁻¹
- Kd [7]: 0.483 nM
- koff [7]: 8.36e-05 s⁻¹
- kon [7]: 173000 M⁻¹ s⁻¹
- potency to neutralize TNFα compared to A7 [8]: ~2 fold
- rel. IC50 to secukinumab (IC50, secukinumab/IC50, test sample, ng/ml) [9]: 10.2
- relative binding level compared to average maximum binding [10]: ~70%
- Kd [11]: 1.42 nM
- koff [11]: 0.00044 s⁻¹
- kon [11]: 310000 M⁻¹ s⁻¹
- IC50 (read off the curve) [12]: ~5 ng/mL
- rel. IC50 (IC50, secukinumab/IC50, test sample, ng/ml) [13]: 10.2
- rel. IC50 to A13 (nM) in HT-29 assay, +HSA [14]: 4.6
- rel. IC50 to A13 (nM) in HT-29 assay, -HSA [14]: 3.9
- rel. IC50 to secukinumab (ng/ml) in HT-29 assay, +HSA [15]: 304
- rel. IC50 to secukinumab (ng/ml) in HT-29 assay, -HSA [15]: 44.1
- Kd [16]: 0.185 nM
- Kd [17]: 0.483 nM
- Kd [18]: 0.799 nM
B1: A8 (trispecific scDb-scFv) (other)
chain: DIQMTQSPSSLSASVGDRVTITCQSSESVYSNNQLSWYQQKPGQPPKLLIYDASDLASGVPSRFSGSGSGTDFTLTISSLQPEDFATYYCAGGFSSSSDTAFGGGTKLTVLGGGGGSEVQLVESGGGLVQPGGSLRLSCAASGIDFSTYGISWVRQAPGKGLEWIAYIYPDYGITDYASWVNGRFTISLDNAQNTVYLQMNSLRAEDTAVYYCARSGSYYSRGWGAHYFNLWGQGTLVTVSSGGGGSGGGGSGGGGSGGGGSDIQMTQSPSSLSASVGDRVTINCQASESISSWLAWYQQKPGKRPKLLIYKASTLASGVPSRFSGSGSGTDYTLTISSLQPEDFATYYCQGYYLDSSVDDNVFGGGTKLTVLGGGGGSEVQLVESGGGLVQPGGSLRLSCAASGFSLSSNAMGWVRQAPGKGLEYIGIISVGGFTYYASWAKGRFTISRDNSKNTVYLQMNSLRAEDTATYFCARDRHGGDSSGAFYLWGQGTLVTVSSGGGGSGGGGSDIQMTQSPSSLSASVGDRVTITCQASQTINYWLAWYQQKPGKAPKLLIYRASTLASGVPSRFSGSGSGTDFTLTISSLQPEDFATYYCQNYYYSTSRSYGFGGGTKLTVLGGGGGSGGGGSGGGGSGGGGSEVQLVESGGGLVQPGGSLRLSCAASGFSFSSDYWMCWVRQAPGKGLEWIGCIYAGDVDDTDYASWARGRFTISRDNSKNTVYLQMNSLRAEDTAVYYCARVDGFDITYFDLWGQGTLVTVSS
notes: Single chain
- IC50 in L929 assay, cell viability [5]: 0.03 nM

- KD, cyno/KD, human [19]: 3.66
- binding result [20]: no binding (tested: about 100000 ng/mL)
- Kd [21]: 0.247 nM
- koff [21]: 0.000112 s⁻¹
- kon [21]: 455000 M⁻¹ s⁻¹
- IC50 [22]: 2 ng/mL
- binding result [24]: no binding (tested: about 20000 ng/mL)
- binding result [25]: no binding (tested: about 100000 ng/mL)
- binding result [26]: no binding (tested: about 20000 ng/mL)
- IC50 in HT-29 assay, GRO-α secretion [27]: 0.2 ng/mL
- Kd [28]: 0.905 nM
- koff [28]: 0.000261 s⁻¹
- kon [28]: 288000 M⁻¹ s⁻¹
- Kd [29]: 0.139 nM
- koff [29]: 0.000102 s⁻¹
- kon [29]: 737000 M⁻¹ s⁻¹
B2: A1 (humanized anti-IL-17A scFv, CDR graft of 27-07-G02) (scFv)
scFv: DIQMTQSPSSLSASVGDRVTITCQASQTINYWLAWYQQKPGKAPKLLIYRASTLASGVPSRFSGSGSGTDFTLTISSLQPEDFATYYCQNYYYSTSRSYGFGGGTKLTVLGGGGGSGGGGSGGGGSGGGGSEVQLVESGGGLVQPGGSLRLSCAASGFSFSSDYWMCWVRQAPGKGLEWIGCIYAGDVDDTDYASWARGRFTISRDNSKNTVYLQMNSLRAEDTAVYYCARVDGFDITYFDLWGQGTLVTVSS
notes: VL-linker-VH; also called 27-07-G02-sc01; 27_07_G02_sc01
- binding result [23]: no binding (tested: about 100000 ng/mL on the axis)

Source: US20220127350A1 (NUMAB THERAPEUTICS, published 2022)
